In PMC5925078 (2018):

Legend:
[1] = biological target: T1, TNFR2 variant in which the intracellular binding site for TRAF2 has been substituted by YFP (UniProt P20333 23-461); assay: cells co-expressing PGRN
T1 chain: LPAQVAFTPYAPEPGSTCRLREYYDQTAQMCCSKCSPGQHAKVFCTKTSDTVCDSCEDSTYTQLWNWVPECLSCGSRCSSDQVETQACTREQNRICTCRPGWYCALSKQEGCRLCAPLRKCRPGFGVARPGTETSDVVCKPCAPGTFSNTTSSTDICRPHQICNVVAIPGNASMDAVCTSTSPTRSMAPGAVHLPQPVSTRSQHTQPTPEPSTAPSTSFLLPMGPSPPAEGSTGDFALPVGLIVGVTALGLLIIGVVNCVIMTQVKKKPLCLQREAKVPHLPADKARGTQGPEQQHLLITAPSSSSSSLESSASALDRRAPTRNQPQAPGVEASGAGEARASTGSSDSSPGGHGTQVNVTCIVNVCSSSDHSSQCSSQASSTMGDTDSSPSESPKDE

[2] = biological target: T1, TNFR2 variant in which the …; assay: cells, second transfection empty vector

- Kd [1]: 0.049 nM
- Kd [2]: 0.036 nM
B1: GpL-Flag-TNC-TNF (ligand)
chain: ACGCAAAPDIKDLLSRLEELEGLVSSLREQSDKPVAHVVANPQAEGQLQWLNRRANALLANGVELRDNQLVVPSEGLYLIYSQVLFKGQGCPSTHVLLTHTISRIAVSYQTKVNLLSAIKSPCQRETPEGAEAKPWYEPIYLGGVFQLEKGDRLSAEINRPDYLDFAESGQVYFGIIAL
